# Results: patent WO2020148554A1 (dated 2020)
# T1: Sudan Gulu glycoprotein (NC_006432.1) expressed on MDCK-SIAT1 cells (Sudan Gulu (SUDV), UniProt Q7T9D9 33-676)
# T1 sequence: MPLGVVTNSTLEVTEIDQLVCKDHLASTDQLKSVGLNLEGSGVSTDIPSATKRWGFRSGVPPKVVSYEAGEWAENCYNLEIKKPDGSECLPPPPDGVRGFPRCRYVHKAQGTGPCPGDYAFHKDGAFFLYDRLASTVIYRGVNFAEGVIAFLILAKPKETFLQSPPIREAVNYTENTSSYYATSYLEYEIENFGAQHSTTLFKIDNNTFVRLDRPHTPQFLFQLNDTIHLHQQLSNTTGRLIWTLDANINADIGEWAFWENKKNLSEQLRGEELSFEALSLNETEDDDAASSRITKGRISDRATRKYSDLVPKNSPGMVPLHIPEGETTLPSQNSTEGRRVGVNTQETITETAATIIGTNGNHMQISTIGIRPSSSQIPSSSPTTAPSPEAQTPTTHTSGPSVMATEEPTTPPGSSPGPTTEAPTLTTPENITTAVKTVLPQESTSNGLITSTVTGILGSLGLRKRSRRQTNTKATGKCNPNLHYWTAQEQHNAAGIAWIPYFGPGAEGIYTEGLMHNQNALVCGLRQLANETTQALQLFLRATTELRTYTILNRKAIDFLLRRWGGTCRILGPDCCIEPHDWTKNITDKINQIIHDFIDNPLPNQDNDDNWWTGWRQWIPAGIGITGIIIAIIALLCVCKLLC
# B1: 040 (antibody, V domains shown)
# VH: QVQLVESGGGFVQPGGSLRLSCAASGFTFSSYAMSWVRQAPGKGLEWVSTISGSGGTTYYADSVKGRFTISRDNSKNTLYLEMITLRAEDTATYFCANSYYYHSSGLLIRWDDMDVWGQGTTVTVSS
# VL: DIQMTQSPSSLSASVGDRVTITCRASQGIRNDLGWYQQKPGKAPKRLIYAASSLQSGVPSRFSGSGSGTEFTLTISSLQPEDFATYYCLQHSSYPWTFGQGTKVEIKR
# B2: 66-3-9C (antibody, V domains shown)
# VH: EVQLVESGGGLVKPGGSLRLSCAASGFTFSSYNMNWVRQAPGKGLEWVSSITTSSSYIYYAYSVKGRFTISRDNAKNSLYLQMNSLRAEDTAVYYCARFLGYSYGTNYYYYGMDVWGQGTTVTVSS
# VL: not shown
# B3: 6541 (antibody, V domains shown)
# VH: EVQLVQWGAGLLKPSETLSLTCAVYGGSFSGNYWTWIRQPPGKGLEWIGEINHSGSTNYNPSLKSRVTISVDTSKNQFSLKLSSVTAADTAVYYCATKMGGYGDYWHWYFDLWGRGTMVTVSS
# VL: EVVMTQSPATLSVSPGERATLSCRASQSLFTNLAWYQQKPGQAPRLLIYGASTRATGIPARFSGSGSGTDFSLTISRLQSEDFAFYYCQQYNDWPLTFGGGTKVDIKR
# B4: 6662 (antibody, V domains shown)
# VH: EVQLVESGGGLVKPGGSLRLSCAASGFGFSSAWMNWVRQAPGKGLEWVGRIKSKTDGGKTDYAAPVKGRFIMSRDDSKNTLYLQMNSLKTEDAGVYYCTTRIVLNGMDVWGQGTLVTVSS
# VL: QSVLTQPPSVSGAPGQRVTISCTGSSSNIGAGYDVHWYQQLPGTAPKLLIYANNNRPSGVPDRFSGSKSGTSASLAITGLQAEDEADYYCQSYDSRLSDGVVFGGGTKLTVLG
# Target: T1, Sudan Gulu glycoprotein (NC_006432.1) …
# Experiment: indirect immunofluorescence by FACS on MDCK-SIAT1 cells expressing GP
row,Binder,binding result
1,B1,binds
2,B2,binds
3,B3,binds
4,B4,binds
